Results from paper doi:10.1101/2023.02.13.526773.

Legend:
[1] = biological target: FLAG-tagged GFP11-CHAMP-1 fusion (N-terminal GFP11); assay: split reporter
[2] = biological target: mEpoR-TM2 (isotope-labelled recombinant mEpoR TM domain fragment) (mouse); assay: SDS-PAGE

Substance	fold MFI over cells expressing either fusion alone [1] [fold]	stoichiometry N [2]
mEpoR-GFP1-10 fusion protein (domain or fragment)	> 4	
mEpoR-TM2 (isotope-labelled recombinant mEpoR TM domain fragment) (domain or fragment)		2
